Test results as given in the supplement of paper PMC10899765.

Key:
Settings in all cases: 20 nM; 72 h
MCF10A [1] = experiment: one-nucleolus phenotype percent effect (relative to siNT 0% and siNOL11 100%); higher = more cells with one nucleolus (ribosome biogenesis inhibition)
Procedure: (§1)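 After 72 h, cells were fixed and stained with Hoechst and anti-fibrillarin, and nucleoli per nucleus were counted with CellProfiler. Values are plate-adjusted percent effect for the one-nucleolus and 5+ nucleoli phenotypes, normalised to siNT (0%) and to the positive controls siNOL11 or siKIF11 (100%), as the mean of biological triplicates. Percent viability is the nuclei count relative to siNT.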

MCF10A [2] = experiment: 5+ nucleoli phenotype percent effect (relative to siNT 0% and siKIF11 100%); higher = more cells with five or more nucleoli
Procedure: as §1

MCF10A [3] = experiment: percent viability (nuclei count relative to siNT); higher = more viable cells
Procedure: as §1

UAUAUAUACAGCCAUGCACUC [hsa-miR-5011-5p]
one-nucleolus phenotype percent effect (MCF10A [1]): -18.5% | 5+ nucleoli phenotype percent effect (MCF10A [2]): 39.8% | percent viability (MCF10A [3]): 74.6%

AGAGCUGGCUGAAGGGCAG [hsa-miR-4487]
one-nucleolus phenotype percent effect (MCF10A [1]): 25.5% | 5+ nucleoli phenotype percent effect (MCF10A [2]): 16.5% | percent viability (MCF10A [3]): 18.7%

UGUUUUGAUAACAGUAAUGU [hsa-miR-2052]
one-nucleolus phenotype percent effect (MCF10A [1]): 0.685% | 5+ nucleoli phenotype percent effect (MCF10A [2]): 5.44% | percent viability (MCF10A [3]): 144%

AACCAUCGACCGUUGAGUGGAC [hsa-miR-181c-3p]
one-nucleolus phenotype percent effect (MCF10A [1]): 16.6% | 5+ nucleoli phenotype percent effect (MCF10A [2]): -21.2% | percent viability (MCF10A [3]): 71%

UAAUUUUAUGUAUAAGCUAGU [hsa-miR-590-3p]
one-nucleolus phenotype percent effect (MCF10A [1]): -23.9% | 5+ nucleoli phenotype percent effect (MCF10A [2]): 34.3% | percent viability (MCF10A [3]): 121%

AGGGACUUUCAGGGGCAGCUGU [hsa-miR-365b-5p]
one-nucleolus phenotype percent effect (MCF10A [1]): 4.45% | 5+ nucleoli phenotype percent effect (MCF10A [2]): 19.9% | percent viability (MCF10A [3]): 36.2%

CAGGCCAUAUUGUGCUGCCUCA [hsa-miR-15a-3p]
one-nucleolus phenotype percent effect (MCF10A [1]): 23% | 5+ nucleoli phenotype percent effect (MCF10A [2]): -27.1% | percent viability (MCF10A [3]): 29.6%

UGGGAGCUAAGCUAUGGGUAU [hsa-miR-5591-5p]
one-nucleolus phenotype percent effect (MCF10A [1]): 13.6% | 5+ nucleoli phenotype percent effect (MCF10A [2]): -6.94% | percent viability (MCF10A [3]): 13.9%

AGUUGCCAGGGCUGCCUUUGGU [hsa-miR-6501-5p]
one-nucleolus phenotype percent effect (MCF10A [1]): 5.87% | 5+ nucleoli phenotype percent effect (MCF10A [2]): -26.4% | percent viability (MCF10A [3]): 47.2%

ACUCAAAACCCUUCAGUGACUU [hsa-miR-616-5p]
one-nucleolus phenotype percent effect (MCF10A [1]): -11.3% | 5+ nucleoli phenotype percent effect (MCF10A [2]): 21.5% | percent viability (MCF10A [3]): 93.6%

GCUCGGACUGAGCAGGUGGG [hsa-miR-3917]
one-nucleolus phenotype percent effect (MCF10A [1]): -20.1% | 5+ nucleoli phenotype percent effect (MCF10A [2]): 32.5% | percent viability (MCF10A [3]): 57.6%

GAAAAUCCUUUUUGUUUUUCCAG [hsa-miR-4668-3p]
one-nucleolus phenotype percent effect (MCF10A [1]): -14.6% | 5+ nucleoli phenotype percent effect (MCF10A [2]): 28.5% | percent viability (MCF10A [3]): 72.8%

GCUCUGACUUUAUUGCACUACU [hsa-miR-301a-5p]
one-nucleolus phenotype percent effect (MCF10A [1]): -23.6% | 5+ nucleoli phenotype percent effect (MCF10A [2]): 59.9% | percent viability (MCF10A [3]): 68.8%

UCCCUGAGACCCUAACUUGUGA [hsa-miR-125b-5p]
one-nucleolus phenotype percent effect (MCF10A [1]): -11.8% | 5+ nucleoli phenotype percent effect (MCF10A [2]): 17.3% | percent viability (MCF10A [3]): 93.8%

CGGGCGUGGUGGUGGGGG [hsa-miR-1268a]
one-nucleolus phenotype percent effect (MCF10A [1]): -19.1% | 5+ nucleoli phenotype percent effect (MCF10A [2]): 44.8% | percent viability (MCF10A [3]): 96.6%

UGACCCCUUCUGUCUCCCUAG [hsa-miR-6846-3p]
one-nucleolus phenotype percent effect (MCF10A [1]): -13.6% | 5+ nucleoli phenotype percent effect (MCF10A [2]): 10.3% | percent viability (MCF10A [3]): 47.5%

CUGGGAGGUGUGAUAUUGUGGU [hsa-miR-3689b-3p]
one-nucleolus phenotype percent effect (MCF10A [1]): 33.2% | 5+ nucleoli phenotype percent effect (MCF10A [2]): -12.6% | percent viability (MCF10A [3]): 11.3%

CAAUUUAGUGUGUGUGAUAUUU [hsa-miR-32-3p]
one-nucleolus phenotype percent effect (MCF10A [1]): -22.3% | 5+ nucleoli phenotype percent effect (MCF10A [2]): 35.1% | percent viability (MCF10A [3]): 80.6%

UGAGGUAGUAGGUUGUAUAGUU [hsa-let-7a-5p]
one-nucleolus phenotype percent effect (MCF10A [1]): -24.4% | 5+ nucleoli phenotype percent effect (MCF10A [2]): 61.1% | percent viability (MCF10A [3]): 29.1%

AGUGGACCGAGGAAGGAAGGA [hsa-miR-4800-5p]
one-nucleolus phenotype percent effect (MCF10A [1]): 2.75% | 5+ nucleoli phenotype percent effect (MCF10A [2]): -9.53% | percent viability (MCF10A [3]): 44.8%

ACUGGACUUGGUGUCAGAUGG [hsa-miR-378h]
one-nucleolus phenotype percent effect (MCF10A [1]): -14.6% | 5+ nucleoli phenotype percent effect (MCF10A [2]): 41% | percent viability (MCF10A [3]): 80%

GAAAGUACAGAUCGGAUGGGU [hsa-miR-8054]
one-nucleolus phenotype percent effect (MCF10A [1]): -3.34% | 5+ nucleoli phenotype percent effect (MCF10A [2]): 24.3% | percent viability (MCF10A [3]): 55.8%

AGAAGGGGUGAAAUUUAAACGU [hsa-miR-3179]
one-nucleolus phenotype percent effect (MCF10A [1]): 60.8% | 5+ nucleoli phenotype percent effect (MCF10A [2]): -30.9% | percent viability (MCF10A [3]): 18.1%

AUCAACAGACAUUAAUUGGGCGC [hsa-miR-421]
one-nucleolus phenotype percent effect (MCF10A [1]): 23.1% | 5+ nucleoli phenotype percent effect (MCF10A [2]): -13.6% | percent viability (MCF10A [3]): 61.3%

CCGCUUUCUGAGCUGGAC [hsa-miR-4315]
one-nucleolus phenotype percent effect (MCF10A [1]): 34.8% | 5+ nucleoli phenotype percent effect (MCF10A [2]): -27.2% | percent viability (MCF10A [3]): 25.2%

AUGCAGGCCUGUGUACAGCACU [hsa-miR-6811-5p]
one-nucleolus phenotype percent effect (MCF10A [1]): 57% | 5+ nucleoli phenotype percent effect (MCF10A [2]): -31.3% | percent viability (MCF10A [3]): 19.1%

AGUUUUGCAUAGUUGCACUACA [hsa-miR-19a-5p]
one-nucleolus phenotype percent effect (MCF10A [1]): -20% | 5+ nucleoli phenotype percent effect (MCF10A [2]): 35.3% | percent viability (MCF10A [3]): 124%

CGUCCCGGGGCUGCGCGAGGCA [hsa-miR-4449]
one-nucleolus phenotype percent effect (MCF10A [1]): -6.92% | 5+ nucleoli phenotype percent effect (MCF10A [2]): -7.62% | percent viability (MCF10A [3]): 75.7%

CCUGUUCUCCAUUACUUGGCUC [hsa-miR-26b-3p]
one-nucleolus phenotype percent effect (MCF10A [1]): 7.43% | 5+ nucleoli phenotype percent effect (MCF10A [2]): -23.3% | percent viability (MCF10A [3]): 63.1%

UCGGCCUGACCACCCACCCCAC [hsa-miR-1234-3p]
one-nucleolus phenotype percent effect (MCF10A [1]): -20.1% | 5+ nucleoli phenotype percent effect (MCF10A [2]): 54.9% | percent viability (MCF10A [3]): 75.7%
